Laboratory results: publication PMC9849446, “Heating-mediated purification of active FGF21 and structure-based design of its variant with enhanced potency” (Scientific Reports, 2023)

T1: Human β-Klotho (human, UniProt Q86Z14 1-996)
T1 construct: human β-Klotho, recombinant protein bought from R&D Systems; source: bought: R&D Systems (cat# 5889-KB-050)
T1 sequence (looked up): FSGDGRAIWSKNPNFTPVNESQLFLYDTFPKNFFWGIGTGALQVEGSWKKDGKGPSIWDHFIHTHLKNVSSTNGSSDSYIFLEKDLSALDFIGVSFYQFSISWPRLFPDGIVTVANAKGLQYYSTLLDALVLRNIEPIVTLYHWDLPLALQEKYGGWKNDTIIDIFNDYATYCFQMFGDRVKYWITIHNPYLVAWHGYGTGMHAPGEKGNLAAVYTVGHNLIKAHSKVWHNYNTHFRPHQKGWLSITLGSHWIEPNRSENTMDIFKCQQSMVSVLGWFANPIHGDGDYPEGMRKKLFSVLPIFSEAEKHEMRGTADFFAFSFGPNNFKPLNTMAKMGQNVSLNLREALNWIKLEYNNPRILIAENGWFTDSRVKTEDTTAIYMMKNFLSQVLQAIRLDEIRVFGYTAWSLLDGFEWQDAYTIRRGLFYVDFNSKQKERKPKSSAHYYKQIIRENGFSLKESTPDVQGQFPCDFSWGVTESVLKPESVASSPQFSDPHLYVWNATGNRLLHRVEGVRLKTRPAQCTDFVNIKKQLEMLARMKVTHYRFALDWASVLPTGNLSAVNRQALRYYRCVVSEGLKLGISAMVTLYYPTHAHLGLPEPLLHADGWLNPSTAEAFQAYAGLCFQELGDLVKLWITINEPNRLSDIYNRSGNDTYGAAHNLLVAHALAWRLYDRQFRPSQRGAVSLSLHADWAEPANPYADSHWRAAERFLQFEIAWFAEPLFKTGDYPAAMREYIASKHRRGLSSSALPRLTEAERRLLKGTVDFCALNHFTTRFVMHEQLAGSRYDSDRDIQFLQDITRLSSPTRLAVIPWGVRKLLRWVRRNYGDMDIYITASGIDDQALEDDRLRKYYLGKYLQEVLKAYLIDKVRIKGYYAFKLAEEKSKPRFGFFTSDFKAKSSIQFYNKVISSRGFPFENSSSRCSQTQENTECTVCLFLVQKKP


How the values were obtained:
Human β-Klotho [1] = target: T1, Human β-Klotho; assay: SPR; Biacore 8K; FGF21s covalently immobilised on CM5 chip by amine coupling (about 700-900 RU); human β-Klotho injected as 2.5-fold series 250 to 1.024 nM at 30 μl/min; 25 °C; HBS-EP+ (10 mM HEPES pH 7.4, 150 mM NaCl, 3 mM EDTA, 0.05% polysorbate 20); global fit, 1:1 Langmuir model; details: both partners purified
Human β-Klotho [2] = target: T1, Human β-Klotho; assay: cell-based or functional assay

| Kd (Human β-Klotho [1]) [nM] | koff (Human β-Klotho [1]) [s⁻¹] | kon (Human β-Klotho [1]) [M⁻¹ s⁻¹] | EC50 of FGFR1c/β-Klotho activation, luciferase reporter in modified HEK293 cells, 6 h (Human β-Klotho [2]) [ng/mL] | Binder |
| --- | --- | --- | --- | --- |
| 12.9 | 0.00155 | 121000 | 2.74 | wild type human FGF21 purified through heat treatment (htFGF21) (ligand, UniProt Q9NSA1 33-209, looked up, human fibroblast growth factor 21 (FGF21), residues 33-209; The TEV site ENLYFQ/G stood between Trx and FGF21, so a Gly probably remains before residue 33 after cleavage (surmised); also called htWT; wild type htFGF21; not shown: Trx, N-terminal, cleaved) DSSPLLQFGGQVRQRYLYTDDAQQTEAHLEIREDGTVGGAADQSPESLLQLKALKPGVIQILGVKTSRFLCQRPDGALYGSLHFDPEACSFRELLLEDGYNVYQSEAHGLPLHLPGNKSPHRDPAPRGPARFLPLPGLPPALPEPPGILAPQPPDVGSSDPLSMVGPSQGRSPSYAS |
| 4.32 | 0.000707 | 164000 | 0.52 | htFGF21 variant with S195G, P199G, S200G, Q201H, and A208T mutations (htM5) (ligand, human, UniProt Q9NSA1 33-209, looked up, human FGF21 with S195G, P199G, S200G, Q201H and A208T; A Gly from the TEV site probably remains at the N-terminus (surmised); also called M5 variant; not shown: Trx, N-terminal, cleaved) DSSPLLQFGGQVRQRYLYTDDAQQTEAHLEIREDGTVGGAADQSPESLLQLKALKPGVIQILGVKTSRFLCQRPDGALYGSLHFDPEACSFRELLLEDGYNVYQSEAHGLPLHLPGNKSPHRDPAPRGPARFLPLPGLPPALPEPPGILAPQPPDVGSSDPLGMVGGGHGRSPSYTS |
| 12.8 | 0.00159 | 126000 | – | wild type human FGF21 purified without heating (nFGF21) (ligand, UniProt Q9NSA1 33-209, looked up, human fibroblast growth factor 21 (FGF21), residues 33-209; differs only in that the 100 °C step was left out of the purification; The TEV site ENLYFQ/G stood between Trx and FGF21, so a Gly probably remains before residue 33 after cleavage (surmised); also called fibroblast growth factor 21; wild type FGF21; source: E. coli Rosetta (DE3), purified without heating; not shown: Trx, N-terminal, …) DSSPLLQFGGQVRQRYLYTDDAQQTEAHLEIREDGTVGGAADQSPESLLQLKALKPGVIQILGVKTSRFLCQRPDGALYGSLHFDPEACSFRELLLEDGYNVYQSEAHGLPLHLPGNKSPHRDPAPRGPARFLPLPGLPPALPEPPGILAPQPPDVGSSDPLSMVGPSQGRSPSYAS |
| 10.9 | 0.0013 | 120000 | 1.37 | htFGF21 variant with Q201H and A208T mutations (htM2) (ligand, human, UniProt Q9NSA1 33-209, looked up, human FGF21 with Q201H and A208T; A Gly from the TEV site probably remains at the N-terminus (surmised); not shown: Trx, N-terminal, cleaved) DSSPLLQFGGQVRQRYLYTDDAQQTEAHLEIREDGTVGGAADQSPESLLQLKALKPGVIQILGVKTSRFLCQRPDGALYGSLHFDPEACSFRELLLEDGYNVYQSEAHGLPLHLPGNKSPHRDPAPRGPARFLPLPGLPPALPEPPGILAPQPPDVGSSDPLSMVGPSHGRSPSYTS |
| 5.19 | 0.000785 | 152000 | 0.75 | htFGF21 variant with S195G, P199G, and S200G mutations (htM3) (ligand, human, UniProt Q9NSA1 33-209, looked up, human FGF21 with S195G, P199G and S200G; A Gly from the TEV site probably remains at the N-terminus (surmised); not shown: Trx, N-terminal, cleaved) DSSPLLQFGGQVRQRYLYTDDAQQTEAHLEIREDGTVGGAADQSPESLLQLKALKPGVIQILGVKTSRFLCQRPDGALYGSLHFDPEACSFRELLLEDGYNVYQSEAHGLPLHLPGNKSPHRDPAPRGPARFLPLPGLPPALPEPPGILAPQPPDVGSSDPLGMVGGGQGRSPSYAS |
